Measurements from patent US20200061153A1 (BAYLOR COLLEGE OF MEDICINE, published 2020).

Columns and labels:
[1] = molecular target: T1, recombinant human vimentin (rhVim), expressed from pQE-30 in E. coli M15 (human, UniProt P08670 2-466); assay: ELISA, wells coated with PSGL-1/Fc 10 µg/mL in DPBS, blocked with 1% BSA, rhVim added at rising concentrations, detection with HRP-conjugated anti-polyhistidine antibody
T1 construct: also called pQE-30-hVim product; not shown: polyhistidine tag from pQE-30 (Ni2+ purification, anti-polyhistidine detection)
T1 sequence (P08670 2-466): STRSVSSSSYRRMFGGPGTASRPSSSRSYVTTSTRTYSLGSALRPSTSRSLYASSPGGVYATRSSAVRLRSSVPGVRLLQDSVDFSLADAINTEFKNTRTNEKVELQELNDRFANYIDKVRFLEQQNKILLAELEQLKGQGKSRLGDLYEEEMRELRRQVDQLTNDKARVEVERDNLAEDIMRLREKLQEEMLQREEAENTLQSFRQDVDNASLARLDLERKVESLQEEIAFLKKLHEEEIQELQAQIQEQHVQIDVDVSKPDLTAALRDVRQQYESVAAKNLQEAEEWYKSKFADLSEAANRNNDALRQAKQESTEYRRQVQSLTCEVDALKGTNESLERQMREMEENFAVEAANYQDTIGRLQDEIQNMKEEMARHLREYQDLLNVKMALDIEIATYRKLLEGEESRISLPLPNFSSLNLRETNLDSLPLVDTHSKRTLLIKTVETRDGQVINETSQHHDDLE
Method: rhVim binding assay—To determine which proteins to which rhVim binds, we performed enzyme linked immunosorbent assays (ELISA) as we described (Da, et al., 2014). Immunoplate wells were coated overnight at 4° C. with P-selectin/Fc or PSGL-1/Fc (10 μg/ml in DPBS). Wells were washed with DPBS and then blocked with 1% BSA for one hour. After blocking, rhVim was added in increasing concentrations and detected using a HRP-conjugated anti-polyhistidine antibody. Tetramethylbenzidine solution was used as the substrate and the reactions were stopped using 1 N sulfuric acid. All ELISA measurements were performed in duplicate and the data reported were averaged from two separate experiments performed.
The effect of rhVim blocking PMN adhesion to P-selectin could be attributed to rhVim either affecting P-selectin, PSGL-1, or both. Therefore, ELISAs were performed with wells coated either PSGL-1/Fc protein (10 μg/mL) or P-selectin/Fc protein (10 μg/mL) and incubated with increasing concentrations of rhVim to each well. Increasing amounts of rhVim bound to P-selectin/Fc protein and reached saturation at 20 μg/mL. There was no binding of rhVim to PSGL-1/Fc at any concentration (FIG. 15C).

[2] = molecular target: T2, soluble recombinant human vimentin (srhVim), full length, expressed from pET30 in E. coli (human, UniProt P08670 2-466); assay: ELISA, wells coated with PSGL-1/Fc 10 µg/mL, srhVim added at rising concentrations, detection with anti-His/HRP
T2 construct: also called full length vimentin; full-length Vimentin; not shown: His tag from pET30 (Ni2+ purification, anti-His detection)
T2 sequence (P08670 2-466): as above
Method: The observations in these experiments, in certain embodiments, are attributed to srhVim either affecting P-selectin, PSGL-1, or both. ELISA was performed by coating 96-well plates with either PSGL-1/Fc protein (10 μg/mL), P-selectin/Fc protein (10 μg/mL), or BSA (10 μg/mL) and adding various concentrations of srhVim to each well. Detection was through anti-His/HRP antibodies. Increasing amounts of srhVim bound to P-selectin/Fc protein and reached saturation at 20 μg/mL. There was no binding of srhVim to PSGL-1/Fc (FIG. 6B).

B1: PSGL-1/Fc protein (Fc fusion, UniProt Q14242 42-295, looked up)
chain: QATEYEYLDYDFLPETEPPEMLRNSTDTTPLTGPGTPESTTVEPAARRSTGLDAGGAVTELTTELANMGNLSTDSAAMEIQTTQPAATEAQTTQPVPTEAQTTPLAATEAQTTRLTATEAQTTPLAATEAQTTPPAATEAQTTQPTGLEAQTTAPAAMEAQTTAPAAMEAQTTPPAAMEAQTTQTTAMEAQTTAPEATEAQTTQPTATEAQTTPLAAMEALSTEPSATEALSMEPTTKRGLFIPFSVSSVTHKG
notes: Bought from R & D Systems; the species is not clearly stated; not shown: Fc part
B1: no binding (tested: 40 µg/mL) [1]; no binding (tested: 40 µg/mL) [2].
